In publication PMC9385847:

Target: endogenous mTOR (mechanistic target of rapamycin) (mouse (endogenous in brain and MEFs)) (UniProt Q9JLN9)
Experiment: co-IP; anti-mTOR on Protein G beads; whole brain lysates of wild type or Thorase KO mice in buffer A, 1% Triton X-100, with or without 2 mM ADP, ATP or ATPγS, 4 °C; immunoblot

With “endogenous S6K (from UniProt Q8BSK8 1-525) (enzyme)” the percent dissociated from mTOR (Thorase KO brain) was 20% and the percent dissociated from mTOR (wild type brain) was 80%.
